Source: PMC12646051

Experiments:
[1] = biological target: mouse Slo1 (mSlo1) α-subunit (mouse) (UniProt Q08460)
[2] = biological target: hSlo1EM-TS (modified human Slo1 BK α subunit with a C-terminal twin-strep tag) (human) (UniProt Q12791); test: pull-down + SEC; HEK293F co-transfected with hSlo1EM-TS, β2-RF and β3-Gρ at plasmid weight ratio 1:1:1 (TR1); digitonin extract; Slo1 held on streptactin XT resin, eluted with 50 mM biotin; eluate read by dual-colour FSEC (Superose 6 Increase; eGFP and mCherry)
Chain of hSlo1EM-TS (modified human Slo1 BK α subunit with a C-terminal twin-strep tag) (human) (Q12791 whole entry): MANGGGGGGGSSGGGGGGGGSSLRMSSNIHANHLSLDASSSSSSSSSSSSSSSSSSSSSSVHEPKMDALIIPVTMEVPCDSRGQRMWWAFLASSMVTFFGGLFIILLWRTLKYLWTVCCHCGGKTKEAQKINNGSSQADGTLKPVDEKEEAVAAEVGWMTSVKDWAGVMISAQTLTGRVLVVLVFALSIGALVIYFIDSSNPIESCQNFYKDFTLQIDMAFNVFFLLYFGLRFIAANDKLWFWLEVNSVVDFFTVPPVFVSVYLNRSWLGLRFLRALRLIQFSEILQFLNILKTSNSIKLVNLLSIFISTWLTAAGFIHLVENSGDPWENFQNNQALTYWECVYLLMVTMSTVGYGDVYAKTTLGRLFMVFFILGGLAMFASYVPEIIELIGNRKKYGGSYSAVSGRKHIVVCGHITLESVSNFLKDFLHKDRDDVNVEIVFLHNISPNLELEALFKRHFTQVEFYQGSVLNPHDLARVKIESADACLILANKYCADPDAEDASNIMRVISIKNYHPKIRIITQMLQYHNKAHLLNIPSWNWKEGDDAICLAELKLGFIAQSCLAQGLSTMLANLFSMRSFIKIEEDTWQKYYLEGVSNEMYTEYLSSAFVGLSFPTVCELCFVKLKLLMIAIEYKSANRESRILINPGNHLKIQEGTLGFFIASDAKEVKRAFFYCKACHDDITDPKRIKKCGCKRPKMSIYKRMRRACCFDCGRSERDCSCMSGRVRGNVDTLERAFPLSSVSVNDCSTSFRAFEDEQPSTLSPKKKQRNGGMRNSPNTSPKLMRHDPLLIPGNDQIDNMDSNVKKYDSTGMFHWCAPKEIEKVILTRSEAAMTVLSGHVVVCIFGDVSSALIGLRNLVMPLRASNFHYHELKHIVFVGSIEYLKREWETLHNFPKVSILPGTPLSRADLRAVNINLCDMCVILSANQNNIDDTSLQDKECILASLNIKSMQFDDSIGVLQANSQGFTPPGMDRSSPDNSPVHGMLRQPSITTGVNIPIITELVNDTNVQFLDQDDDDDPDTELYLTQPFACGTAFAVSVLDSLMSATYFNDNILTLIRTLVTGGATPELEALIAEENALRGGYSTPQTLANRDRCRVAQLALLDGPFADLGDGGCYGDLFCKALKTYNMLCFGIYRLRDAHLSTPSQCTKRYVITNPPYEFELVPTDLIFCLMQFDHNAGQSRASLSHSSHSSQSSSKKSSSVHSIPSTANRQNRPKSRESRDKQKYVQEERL

[3] = biological target: hSlo1EM-TS (modified human Slo1 BK α subunit with a C-terminal twin-strep tag) (human) (UniProt Q12791); test: pull-down + SEC; TR1 (1:1:1); three-step affinity purification: streptactin XT (Slo1), then anti-FLAG M2 resin (β2) and anti-ρ1D4 resin (β3) one after the other, in either order; eluates, input and flow-through read by dual-colour FSEC
[4] = biological target: β3-Gρ (full-length human BK β3a subunit with C-terminal eGFP-ρ1D4) (human); test: as above
[5] = biological target: hSlo1EM-TS (modified human Slo1 BK α subunit with a C-terminal twin-strep tag) (human) (UniProt Q12791); test: pull-down + SEC; as a1 but plasmid weight ratio 1:0.2:1.8 (TR2)
[6] = biological target: hSlo1EM-TS (modified human Slo1 BK α subunit with a C-terminal twin-strep tag) (human) (UniProt Q12791); test: pull-down + SEC; as a3 but plasmid weight ratio 1:0.2:1.8 (TR2)
[7] = biological target: β3-Gρ (full-length human BK β3a subunit with C-terminal eGFP-ρ1D4) (human); test: pull-down + SEC; plasmid weight ratio 1:0.2:1.8 (TR2)
[8] = biological target: T1, human β2 (hβ2) (human) (UniProt Q9Y691)
T1 sequence: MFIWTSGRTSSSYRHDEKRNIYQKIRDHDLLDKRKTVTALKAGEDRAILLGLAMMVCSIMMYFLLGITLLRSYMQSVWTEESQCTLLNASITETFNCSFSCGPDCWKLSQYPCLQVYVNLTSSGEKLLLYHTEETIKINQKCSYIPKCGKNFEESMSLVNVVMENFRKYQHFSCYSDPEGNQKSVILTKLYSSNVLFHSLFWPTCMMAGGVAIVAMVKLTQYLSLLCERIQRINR

[9] = biological target: T1, human β2 (hβ2) (human); remark: listed apart in the source

Chain of mouse Slo1 (mSlo1) α-subunit (mouse) (Q08460 whole entry): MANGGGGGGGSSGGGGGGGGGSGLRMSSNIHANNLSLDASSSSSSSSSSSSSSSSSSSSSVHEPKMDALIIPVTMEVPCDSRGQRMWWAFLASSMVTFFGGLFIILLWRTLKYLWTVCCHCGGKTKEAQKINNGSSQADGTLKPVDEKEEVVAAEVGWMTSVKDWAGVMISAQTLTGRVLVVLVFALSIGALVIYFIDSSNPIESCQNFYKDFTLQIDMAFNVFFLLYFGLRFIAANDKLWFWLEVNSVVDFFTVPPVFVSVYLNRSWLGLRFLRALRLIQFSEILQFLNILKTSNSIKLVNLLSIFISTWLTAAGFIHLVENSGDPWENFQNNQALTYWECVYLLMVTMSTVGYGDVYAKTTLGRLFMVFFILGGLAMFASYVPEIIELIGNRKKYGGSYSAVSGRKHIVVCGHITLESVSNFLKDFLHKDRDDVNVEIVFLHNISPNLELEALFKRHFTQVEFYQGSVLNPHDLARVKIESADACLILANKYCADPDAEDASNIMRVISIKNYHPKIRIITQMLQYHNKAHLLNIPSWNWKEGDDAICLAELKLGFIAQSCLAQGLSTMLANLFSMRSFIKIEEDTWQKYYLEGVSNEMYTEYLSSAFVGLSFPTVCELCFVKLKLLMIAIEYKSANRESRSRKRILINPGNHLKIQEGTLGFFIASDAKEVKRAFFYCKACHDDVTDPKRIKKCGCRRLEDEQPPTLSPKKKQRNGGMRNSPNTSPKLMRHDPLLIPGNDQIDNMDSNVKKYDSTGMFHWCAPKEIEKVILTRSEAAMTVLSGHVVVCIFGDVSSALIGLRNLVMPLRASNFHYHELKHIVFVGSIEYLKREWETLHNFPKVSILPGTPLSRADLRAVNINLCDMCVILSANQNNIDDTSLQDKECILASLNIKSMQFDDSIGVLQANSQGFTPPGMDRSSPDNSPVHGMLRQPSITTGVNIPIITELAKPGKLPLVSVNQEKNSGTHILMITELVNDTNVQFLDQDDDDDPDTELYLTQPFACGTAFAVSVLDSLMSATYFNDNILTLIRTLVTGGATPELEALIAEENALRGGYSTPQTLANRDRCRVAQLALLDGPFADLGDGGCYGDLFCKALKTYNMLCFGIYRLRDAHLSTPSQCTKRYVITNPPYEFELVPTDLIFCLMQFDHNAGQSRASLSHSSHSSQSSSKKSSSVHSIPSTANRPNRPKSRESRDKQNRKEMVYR

B1: human β2 (hβ2) (natural protein)
chain: T1 sequence
With B1 the time course of trypsin removal of inactivation of α+β2 currents in excised oocyte patches, described by I(t)=(1-exp(-t/τ))^4; β subunits per channel (β subunits per channel) [1] was 4.

B2: β2-RF (full-length human BK β2 subunit with C-terminal mCherry-FLAG) (natural protein)
chain: T1 sequence
In the case of B2, the molar ratio of β2-RF to β3-Gρ affiliated with Slo1 [2] is reported as 7.32 mol/mol, the stoichiometry N (β2 per 4 Slo1) [3] is reported as 2.8 and the percent of Slo1–β3 complexes that are ternary (hold β2 too) [4] is reported as 49%. It also gave a molar ratio of β2-RF to β3-Gρ affiliated with Slo1 [5] of 1.08 mol/mol, a stoichiometry N (β2 per 4 Slo1) [6] of 1.9 and a percent of Slo1–β3 complexes that are ternary (hold β2 too) [7] of 37%.

B3: mouse β3a (mβ3a) (natural protein)
chain: MQPFSIPVQITLQGGRRRQGRTALPASGKINGDPLKVHPKLPSSAGEDRAMLLGVAMMASSVLMFFLLGTTVLKPFMLRSPREESNCTTVHTHIVDDGLDFSFTCEGSCQDHGRSPCLQVFVNLSHSGQKVLLHYDDEAIRTNPKCFYTPKCHGDRDDLLNSVLDIKEFFDHNNGTFPCFYSPDGPLGVVLRKSGHKVVFHCLFWPLLTLLGGALIVGLVRLTQHLSFQCEQYSTVVRA
Binder B3 has a global fit of the trypsin digestion time courses of BK currents (mSlo1 with β2:β3a injection ratios 1:4 to 1:24, β2 alone, β3a alone): random mixing model against segregated model (fold lower sum of squares) [8] of 2.5, a single-channel recordings from oocytes with BK α and 1:8 β2:β3a: of 16 patches with β3a-type tail openings, those that also show β2-like recovery from inactivation without reopening (of 16 patches) [9] of 14 and a time course of trypsin removal of inactivation of α+β3a currents in excised oocyte patches, described by I(t)=(1-exp(-t/τ))^4; β subunits per channel (β subunits per channel) [1] of 4.
